# Results as given in paper PMC4718548 (Structure (London, England : 1993), 2015).
# Where a chain is given by its changes, count along the chain named. Names and notes keep the numbering of the source.
# B1: Mycobacterium tuberculosis ribosomal silencing factor RsfS, wild type, C-terminal His6 (natural protein)
# chain: MTANREAIDMARVAAGAAAAKLADDVVVIDVSGQLVITDCFVIASGSNERQVNAIVDEVEEKMRQAGYRPARREGAREGRWTLLDYRDIVVHIQHQDDRNFYALDRLWGDCPVVPVDLSANSAGAQ
# B2: Mycobacterium tuberculosis RsfS E74A, C-terminal His6 (natural protein)
# chain: B1 chain with E74A
# B3: Escherichia coli RsfS, wild type, C-terminal His6 (natural protein)
# chain: MQGKALQDFVIDKIDDLKGQDIIALDVQGKSSITDCMIICTGTSSRHVMSIADHVVQESRAAGLLPLGVEGENSADWIVVDLGDVIVHVMQEESRRLYELEKLWS
# Key:
# [1] = target: Mycobacterium tuberculosis ribosome large subunit 50S (Mycobacterium tuberculosis (endogenous in Mtb MC2 7000)) (UniProt A5U0A0); assay: co-sedimentation
# [2] = target: Mycobacterium tuberculosis ribosome large subunit 50S (Mycobacterium tuberculosis (endogenous in Mtb MC2 7000)) (UniProt A5U0A0); assay: cryo-EM structure
# [3] = target: the molecule itself
# [4] = target: Mycobacterium tuberculosis ribosome large subunit 50S (Mycobacterium tuberculosis (endogenous in Mtb MC2 7000)) (UniProt A5U0A0)
# Sequence of Mycobacterium tuberculosis ribosome large subunit 50S (Mycobacterium tuberculosis (endogenous in Mtb MC2 7000)) (A5U0A0 whole entry, looked up): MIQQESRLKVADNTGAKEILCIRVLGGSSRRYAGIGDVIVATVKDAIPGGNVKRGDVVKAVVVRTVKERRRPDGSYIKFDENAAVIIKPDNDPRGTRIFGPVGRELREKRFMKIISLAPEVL
molecule,measurement,setting,value
Mycobacterium tuberculosis ribosome small subunit 30S (complex),"percent of 50S in the 70S form, without RsfS",[1],> 70%
B1,stoichiometry N,[2],1
B2,stoichiometry N,[3],2
B3,inhibition in the Mtb ribosome cell-free translation assay,[4],80%
